Patent US20100077492A1 (UNIVERSITY OF MASSACHUSETTS, published 2010)

B1: E. coli Endo III (enzyme, UniProt P0AB83 1-211, looked up)
chain: MNKAKRLEILTRLRENNPHPTTELNFSSPFELLIAVLLSAQATDVSVNKATAKLYPVANTPAAMLELGVEGVKTYIKTIGLYNSKAENIIKTCRILLEQHNGEVPEDRAALEALPGVGRKTANVVLNTAFGWPTIAVDTHIFRVCNRTQFAPGKNVEQVEEKLLKVVPAEFKVDCHHWLILHGRYTCIARKPRCGSCIIEDLCEYKEKVDI
notes: Negative control, immobilised on the membrane
B2: ^32P-labelled XPG-HMK (human XPG with a C-terminal heart muscle kinase recognition sequence tag) (enzyme)
chain: MGVQGLWKLLECSGRQVSPEALEGKILAVDISIWLNQALKGVRDRHGNSIENPHLLTLFHRLCKLLFFRIRPIFVFDGDAPLLKKQTLVKRRQRKDLASSDSRKTTEKLLKTFLKRQAIKTAFRSKRDEALPSLTQVRRENDLYVLPPLQEEEKHSSEEEDEKEWQERMNQKQALQEEFFHNPQAIDIESEDFSSLPPEVKHEILTDMKEFTKRRRTLFEAMPEESDDFSQYQLKGLLKKNYLNQHIEHVQKEMNQQHSGHIRRQYEDEGGFLKEVESRRVVSEDTSHYILIKGIQAKTVAEVDSESLPSSSKMHGMSFDVKSSPCEKLKTEKEPDATPPSPRTLLAMQAALLGSSSEEELESENRRQARGRNAPAAVDEGSISPRTLSAIKRALDDDEDVKVCAGDDVQTGGPGAEEMRINSSTENSDEGLKVRDGKGIPFTATLASSSVNSAEEHVASTNEGREPTDSVPKEQMSLVHVGTEAFPISDESMIKDRKDRLPLESAVVRHSDAPGLPNGRELTPASPTCTNSVSKNETHAEVLEQQNELCPYESKFDSSLLSSDDETKCKPNSASEVIGPVSLQETSSIVSVPSEAVDNVENVVSFNAKEHENFLETIQEQQTTESAGQDLISIPKAVEPMEIDSEESESDGSFIEVQSVISDEELQAEFPETSKPPSEQGEEELVGTREGEAPAESESLLRDNSERDDVDGEPQEAEKDAEDSLHEWQDINLEELETLESNLLAQQNSLKAQKQQQERIAATVTGQMFLESQELLRLFGIPYIQAPMEAEAQCAILDLTDQTSGTITDDSDIWLFGARHVYRNFFNKNKFVEYYQYVDFHNQLGLDRNKLINLAYLLGSDYTEGIPTVGCVTAMEILNEFPGHGLEPLLKFSEWWHEAQKNPKIRPNPHDTKVKKKLRTLQLTPGFPNPAVAEAYLKPVVDDSKGSFLWGKPDLDKIREFCQRYFGWNRTKTDESLFPVLKQLDAQQTQLRIDSFFRLAQQEKEDAKRIKSQRLNRAVTCMLRKEKEAAASEIEAVSVAMEKEFELLDKAKGKTQKRGITNTLEESSSLKRKRLSDSKGKNTCGGFLGETCLSESSDGSSSEDAESSSLMNVQRRTAAKEPKTSASDSQNSVKEAPVKNGGATTSSSSDSDDDGGKEKMVLVTARSVFGKKRRKLRRARGRKRKTRRASV
modifications: ^32P-labeled at the heart muscle kinase (HMK) recognition tag RRASV
notes: The tagged form was used only in the far western and slot blot assays, as the labelled probe in solution; also called ^32P-labeled XPG with a heart muscle kinase (HMK) tag

How the values were obtained:
[1] = biological target: B2; assay: far western: ^32P-labelled XPG-HMK probe on proteins transferred from SDS-PAGE
Procedure: (§1) For “far western” analysis, human PC4 protein (1.5 μg), human Nth1 protein (2.1 μg) and E. coli EndoIII (3 μg) were separated on SDS-PAGE (pre-cast 4-20% gel, BioRad), transferred to a PVDF membrane, and stained with Ponceau S to visualize the proteins on the membrane. The membrane was then blocked with a blocking buffer (25 mM Hepes-KOH (pH 7.7), 25 mM NaCl, 5 mM MgCl₂, 1 mM DTT, 1% nonfat milk and 0.1% NP-40) for 2 hours at 4° C. and probed overnight at 4° C. on a rocker with blocking buffer containing 150 mM KCl and ³²P-labeled XPG with a heart muscle kinase (HMK) tag. The membrane was washed with washing buffer (25 mM Hepes-KOH (pH 7.7), 25 mM NaCl, 150 mM KCl, 5 mM MgCl2, 1 mM DTT, 1% nonfat milk and 0.5% NP-40), and interactions were visualized by both phosphorimager and autoradiography. For slot-blot analysis 1 μg each of PC4, hNth1 and EndoIII were applied to a nitrocellulose membrane, and the membrane was processed as above.
(§2) Since Sub1 evidently functions in a pathway involving Rad2, we tested the possibility of direct interaction between the human PC4 and XPG proteins by “far western” analysis. To test PC4-XPG interaction, ³²P-labeled XPG was used as a probe for PC4 transferred onto a membrane from an SDS-PAGE gel. […]

[2] = biological target: T1, human PC4 protein (full length wild type) (human, UniProt P53999 1-127); assay: far western: ^32P-labelled XPG-HMK probe on PC4 transferred from SDS-PAGE
T1 construct: Full length wild type PC4 expressed in E. coli BL21(DE3) and purified by the methods of Ge et al; It was immobilised on the membrane, denatured after SDS-PAGE in the far western and native in the slot blot
Procedure: as §1, §2

Binder | binding result [1] | binding result [2]
B1 | no binding (tested: 3 µg EndoIII on the membrane) | –
B2 | – | binds
